Data taken from US6747136.

Molecular target: HCV E2 antigen (HCV genotype 1b) (hepatitis C virus genotype 1b)

B1: Fab molecule clone 1:11 (Fab, V domains shown)
VH: VQLLEQSGAEVKKPGSSVKVSCKASGGTFSGHVISWVRQAPGQGLEWMGGSISFFGTSNSAQKFQGRVSITADESASTAYMELSSLRSEDTAIYYCAKDPPRFCSGGNCYPGFFQQWGQGTLVTVSS
VL: AELTQSPGTLSLSPGERATLSCGASQSVRSNYLAWYQQKPGQAPRLLIYGVSSRATGIPDRFSGSGSGTDFTLTISRLEPEDFAVYYCQQYGSSPRTFGQGTKLEIK
B1 was tested. Which IC50 did it give?
Its IC50 is 0.15 µg/mL.
